Experimental data: patent US20130133089A1 (MEDICAL RESEARCH INFRASTRUCTURE AND HEALTH SERVICES FUND OF …, published 2013)
Where a chain is given by its changes, count along the chain named. Names may count otherwise. “And” between values parts separate entries of the source, which are not always exact repeats. Equal entries are not always repeated.

Columns and labels:
[1] = target: T1, Recombinant human leptin binding domain (hLBD) (human, UniProt P48357 428-635, biotinylated with Sulfo-NHS-LC-Biotin in the yeast display assays; not labelled when immobilized in the plate binding assay); experiment: competitive plate binding assay: immobilized hLBD, biotinylated mouse leptin as ligand, mutein as competitor
T1 construct: CRH2 sub-domain of the leptin receptor; Prepared in the applicants' laboratory; also called soluble human leptin receptor; CHR2
T1 sequence (looked up): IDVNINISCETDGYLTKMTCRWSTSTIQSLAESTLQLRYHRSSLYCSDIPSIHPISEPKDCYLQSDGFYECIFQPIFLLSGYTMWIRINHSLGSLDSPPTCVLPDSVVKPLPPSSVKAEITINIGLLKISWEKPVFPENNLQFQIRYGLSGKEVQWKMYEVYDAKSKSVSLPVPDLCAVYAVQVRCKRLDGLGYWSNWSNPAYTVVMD
Experimental: Biotinylated mouse leptin served as the ligand in all competitive experiments and the respective mouse leptin or mouse or human leptin antagonist muteins as competitors. The hLBD was used as the receptor source. Polystyrene 96-well microtiter plates were coated overnight at 4° C. with 100 μl of 40 μM hLBD in PBS pH 7.4. Wells were then washed one time with PBST (PBS containing 0.05 Tween 20) and blocked with PBS containing 3% skim milk for two hours in room temperature. All further incubations were carried out at room temperature. Wells were washed one time with PBST and incubated with different concentrations of un-labeled leptins (50 μl/well) for 30 min and then 50 μl of 62.5 μM of biotinylated mouse leptin were added to each well for another two hours. Then the wells were washed three times with PBST and incubated with 1:30,000 streptavidin-HRP in PBS containing 1 Tween 20 for one hour. Subsequently the wells were washed three times with PBST and the reaction was quantified in 450 nm by microplate reader ELISA Plate Reader ELx808—Bio-Tek Instrument Inc. (Winooski, Vt., USA) using TMB according to manufacturer's instructions.

[2] = target: long form of human leptin receptor (hLEPR) on BAF/3 or H-49 (HEK-293) cells (human), P48357; experiment: cell-based or functional assay
[3] = target: T1, Recombinant human leptin binding domain …; experiment: yeast display, flow cytometry titration with biotinylated hLBD (FIG. 4B)
From the text: (§1) Those 7 mouse leptin mutants were selected for preparation of respectively mutated leptins expressed in E. coli.

[4] = target: T1, Recombinant human leptin binding domain …; experiment: yeast display, flow cytometry titration with biotinylated hLBD (FIG. 4A)
From the text: as §1

Chain of long form of human leptin receptor (hLEPR) on BAF/3 or H-49 (HEK-293) cells (human), P48357 (P48357 22-1165): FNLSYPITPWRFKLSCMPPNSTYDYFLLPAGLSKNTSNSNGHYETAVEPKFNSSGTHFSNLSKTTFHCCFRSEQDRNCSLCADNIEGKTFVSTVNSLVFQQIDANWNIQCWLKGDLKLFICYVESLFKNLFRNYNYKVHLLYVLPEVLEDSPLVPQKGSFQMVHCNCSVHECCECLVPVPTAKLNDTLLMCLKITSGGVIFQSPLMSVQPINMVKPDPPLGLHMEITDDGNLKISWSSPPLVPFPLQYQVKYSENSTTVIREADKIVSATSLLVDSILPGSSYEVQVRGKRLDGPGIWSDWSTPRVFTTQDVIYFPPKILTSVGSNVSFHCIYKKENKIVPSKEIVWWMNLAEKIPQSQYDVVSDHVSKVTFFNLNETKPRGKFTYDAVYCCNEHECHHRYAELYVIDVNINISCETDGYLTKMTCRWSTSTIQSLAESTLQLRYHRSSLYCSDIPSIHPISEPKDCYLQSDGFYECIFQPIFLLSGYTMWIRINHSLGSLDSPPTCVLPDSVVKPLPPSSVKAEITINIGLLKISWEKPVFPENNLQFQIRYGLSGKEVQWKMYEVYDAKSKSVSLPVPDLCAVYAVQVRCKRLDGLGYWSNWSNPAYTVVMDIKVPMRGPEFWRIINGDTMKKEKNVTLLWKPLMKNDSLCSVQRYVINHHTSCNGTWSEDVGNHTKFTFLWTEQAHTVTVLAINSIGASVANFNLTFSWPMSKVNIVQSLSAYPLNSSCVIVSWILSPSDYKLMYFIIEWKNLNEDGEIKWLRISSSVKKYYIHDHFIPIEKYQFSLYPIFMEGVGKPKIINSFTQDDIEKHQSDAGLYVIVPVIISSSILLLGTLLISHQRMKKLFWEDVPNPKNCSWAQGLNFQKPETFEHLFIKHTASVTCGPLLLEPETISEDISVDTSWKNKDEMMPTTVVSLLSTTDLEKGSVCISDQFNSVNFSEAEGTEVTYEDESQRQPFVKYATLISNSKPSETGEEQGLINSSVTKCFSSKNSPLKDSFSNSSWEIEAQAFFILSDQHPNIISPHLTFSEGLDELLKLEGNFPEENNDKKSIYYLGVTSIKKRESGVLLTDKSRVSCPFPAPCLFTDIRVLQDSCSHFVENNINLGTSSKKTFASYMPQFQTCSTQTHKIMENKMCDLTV

B1: mouse leptin antagonist H16 (D23G, G112S + L39A/D40A/F41A) (ligand)
chain: AVPIQKVQDDTKTLIKTIVTRINGISHTQSVSAKQRVTGAAAIPGLHPILSLSKMDQTLAVYQQVLTSLPSQNVLQIANDLENLRDLLHLLAFSKSCSLPQTSGLQKPESLDSVLEASLYSTEVVALSRLQGSLQDILQQLDVSPEC
notes: mature; also called H16 (antagonist)
With B1 the “fold increase in affinity as compared to the WT mouse leptin antagonist” value [1] was 11 fold.

B2: recombinant mouse leptin mutein H15 (D23G, L68M, S97F, S132Y), agonist (ligand)
chain: B1 chain with A40L, A41D, A42F, L69M, S98F, S113G, S133Y
notes: mature
B2 was tested, and the “fold increase in affinity as compared to the WT mouse leptin” value [1] was 9.7 fold.

B3: superactive mouse leptin antagonist (SMLA), D23L/L39A/D40A/F41A mouse leptin, P41160 22-167 (ligand)
chain: VPIQKVQDDTKTLIKTLVTRINLISHTQSVSAKQRVTGAAAIPGLHPILSLSKMDQTLAVYQQVLTSLPSQNVLQIANDLENLRDLLHLLAFSKSCSLPQTSGLQKPESLDGVLEASLYSTEVVALSRLQGSLQDILQQVDLSPGC
Binder B3 has a BAF/3 bioassay: fold increase in bioactivity as compared to the WT mouse leptin antagonist [2] of 13.9 fold, a Luciferase bioassay: fold increase in bioactivity as compared to the WT mouse leptin antagonist [2] of 13.4 fold and a biological (inhibitory) activity, FIG. 12A: fold higher than that of HLA [2] of over 9 fold.

B4: wild type mouse leptin displayed on yeast as Aga2p fusion (ligand, UniProt P41160 22-167, looked up, not shown: large carriers; small tags and cut ends)
chain: B3 chain with L17I, L23D, A39L, A40D, A41F, V140L, L142V, G145E
notes: mature; also called mlep wt; mlep, wt1
For B4, the Kd [3] was 95 nM and 95.7 nM and the Kd [4] was 159 nM and 115 nM.

B5: pegylated superactive mouse leptin antagonist (PEG-SMLA), P41160 22-167 (ligand)
chain: B3 chain
modifications: here or on the partner: mPEG-propionyl-ALD 20 kDa, preferentially on the N-terminal amino group (85% monopegylated, ~9% double pegylated)
Binder B5 has a biological activity in H-49 cells: fold reduction as compared to the non-pegylated SMLA [2] of 9 fold.

B6: yeast-displayed mouse leptin clone H7 (K11R, Q34R, T37A, F92C, S97Y, I136V) (ligand, UniProt P41160 22-167, looked up, not shown: large carriers; small tags and cut ends)
chain: VPIQKVQDDTRTLIKTIVTRINDISHTQSVSAKRRVAGLDFIPGLHPILSLSKMDQTLAVYQQVLTSLPSQNVLQIANDLENLRDLLHLLACSKSCYLPQTSGLQKPESLDGVLEASLYSTEVVALSRLQGSLQDVLQQLDVSPEC
notes: mature; also called H18; H27
With B6 the Bmax [3] was 1140 MFI, the Kd [3] was 83.5 nM and the Bmax [4] was 1590 MFI. It also gave a Kd [4] of 126 nM.

B7: yeast-displayed mouse leptin clone H12 (S97Y) (ligand, UniProt P41160 22-167, looked up, not shown: large carriers; small tags and cut ends)
chain: B6 chain with R11K, R34Q, A37T, C92F, V136I
notes: mature; also called H20; H24
Work on B7 yielded a Bmax [3] of 785 MFI, a Kd [3] of 103 nM and a Bmax [4] of 961 MFI. It also gave a Kd [4] of 130 nM.

B8: yeast-displayed mouse leptin clone H3 (D23G, L68M, S97F, S132Y) (ligand, UniProt P41160 22-167, looked up, not shown: large carriers; small tags and cut ends)
chain: B6 chain with R11K, D23G, R34Q, A37T, L68M, C92F, Y97F, S132Y, V136I
notes: mature; also called H15; H4
Binder B8 has a Bmax [3] of 1350 MFI, a Kd [3] of 92.8 nM and a Bmax [4] of 1450 MFI. For the same binder, the Kd [4] was 91.7 nM.

B9: yeast-displayed mouse leptin clone H30 (D23H) (ligand, UniProt P41160 22-167, looked up, not shown: large carriers; small tags and cut ends)
chain: B6 chain with R11K, D23H, R34Q, A37T, C92F, Y97S, V136I
notes: mature
In the case of B9, the Bmax [3] is reported as 741 MFI, the Kd [3] is reported as 40.9 nM and the Bmax [4] is reported as 847 MFI. It also gave a Kd [4] of 59.5 nM.

B10: yeast-displayed mouse leptin clone L1 (D23N, Q34L, L114P) (ligand, UniProt P41160 22-167, looked up, not shown: large carriers; small tags and cut ends)
chain: B6 chain with R11K, D23N, R34L, A37T, C92F, Y97S, L114P, V136I
notes: mature
In the case of B10, the Bmax [3] is reported as 1680 MFI and the Kd [3] is reported as 158 nM.

B11: yeast-displayed mouse leptin clone H17 (S109F) (ligand, UniProt P41160 22-167, looked up, not shown: large carriers; small tags and cut ends)
chain: B6 chain with R11K, R34Q, A37T, C92F, Y97S, S109F, V136I
notes: mature
With B11 the Bmax [4] was 3600 MFI and the Kd [4] was 620 nM.

B12: yeast-displayed mouse leptin clone H22 (T12I) (ligand, UniProt P41160 22-167, looked up, not shown: large carriers; small tags and cut ends)
chain: B6 chain with R11K, T12I, R34Q, A37T, C92F, Y97S, V136I
notes: mature
Binder B12 has a Bmax [3] of 719 MFI, a Kd [3] of 82.3 nM and a Bmax [4] of 852 MFI. For the same binder, the Kd [4] was 122 nM.

B13: yeast-displayed mouse leptin clone H6 (D23G, V30D, Y119H) (ligand, UniProt P41160 22-167, looked up, not shown: large carriers; small tags and cut ends)
chain: B6 chain with R11K, D23G, V30D, R34Q, A37T, C92F, Y97S, Y119H, V136I
notes: mature
B13 showed a Bmax [3] of 1290 MFI and a Kd [3] of 99.1 nM.

B14: yeast-displayed mouse leptin clone H19 (D23G, T37A, G44D) (ligand, UniProt P41160 22-167, looked up, not shown: large carriers; small tags and cut ends)
chain: B6 chain with R11K, D23G, R34Q, G44D, C92F, Y97S, V136I
notes: mature
For B14, the Bmax [3] was 966 MFI, the Kd [3] was 68.4 nM and the Bmax [4] was 968 MFI. For the same binder, the Kd [4] was 104 nM.

B15: yeast-displayed mouse leptin clone H16 (D23G, G112S) (ligand, UniProt P41160 22-167, looked up, not shown: large carriers; small tags and cut ends)
chain: B6 chain with R11K, D23G, R34Q, A37T, C92F, Y97S, G112S, V136I
notes: mature
For B15, the Bmax [3] was 550 MFI and the Kd [3] was 44 nM.

B16: yeast-displayed mouse leptin clone H2 (A125T, S132Y) (ligand, UniProt P41160 22-167, looked up, not shown: large carriers; small tags and cut ends)
chain: B6 chain with R11K, R34Q, A37T, C92F, Y97S, A125T, S132Y, V136I
notes: mature
B16 gave a Bmax [3] of 2570 MFI and a Kd [3] of 243 nM.

B17: human leptin super antagonist (SHLA), human leptin D23L/L39A/D40A/F41A, P41159 22-167 (ligand)
chain: VPIQKVQDDTKTLIKTIVTRINLISHTQSVSSKQKVTGAAAIPGLHPILTLSKMDQTLAVYQQILTSMPSQNVIQISNDLENLRDLLHVLAFSKSCHLPWASGLETLDSLGGVLEASGYSTEVVALSRLQGSLQDMLWQLDLSPGC
Work on B17 yielded a biological (inhibitory) activity, FIG. 12A: fold higher than that of HLA [2] of over 9 fold.
